This note sets out measurements from publication PMC12866752, “Computational Design and Glycoengineering of Interferon‐Lambda for Nasal Prophylaxis Against Respiratory Viruses” (Advanced Science, 2025).

This assay has as its target T1, recombinant ectodomain of human IFN-λ receptor 1 (hIFN-λR1) (human, UniProt Q8IU57 21-228).
T1 construct: for the receptor neither is said; also called IFNLR1; source: recombinant; plasmids transfected into Expi293-F cells; purification of the receptor not described
T1 sequence (looked up): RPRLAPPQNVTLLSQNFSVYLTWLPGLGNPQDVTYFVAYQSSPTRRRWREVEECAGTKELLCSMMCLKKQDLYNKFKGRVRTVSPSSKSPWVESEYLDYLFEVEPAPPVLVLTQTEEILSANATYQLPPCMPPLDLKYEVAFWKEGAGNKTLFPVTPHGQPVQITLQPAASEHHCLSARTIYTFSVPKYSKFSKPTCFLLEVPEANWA
The experiment in a line: SPR; Biacore T200; His-tagged hIFN-λ3-WT or hIFN-λ3-DE1 immobilised on a Series S NTA chip to about 200 RU; analyte hIFN-λR1 ectodomain at 6.25, 12.5 and 25 nM, 60 s at 10 µL/min, 120 s dissociation; 1X PBS-P+ with 50 nM EDTA; global fit to a 1:1 model. Conditions: both partners purified. For orientation: Surface plasmon resonance follows binding to a sensor surface in real time, without labels.

B1: wild-type human interferon-λ3 (hIFN-λ3-WT), His-tagged (ligand, UniProt Q8IZI9 22-196, looked up)
chain: VPVARLRGALPDARGCHIAQFKSLSPQELQAFKRAKDALEESLLLKDCKCRSRLFPRTWDLRQLQVRERPVALEAELALTLKVLEATADTDPALGDVLDQPLHTLHHILSQLRACIQPQPTAGPRTRGRLHHWLHRLQEAPKKESPGCLEASVTFNLFRLLTRDLNCVASGDLCV
notes: human IFN-λ3, full-length cDNA in a modified pcDNA3.1 with a TEV site and C-terminal 6xHis tag; also called wild-type hIFN-λ3; source: Expi293-F cells, transfected, from the culture supernatant, purified (Ni-NTA, SEC); not shown: His6, C-terminal, kept
With B1, the binding result is on record as “binds”.
